Laboratory results: PMC8922272 (The EMBO Journal, 2022)

Target: GST-hAKT2 (human, UniProt P31751 1-481)
Test: pull-down

Sequence of GST-hAKT2 (P31751 whole entry): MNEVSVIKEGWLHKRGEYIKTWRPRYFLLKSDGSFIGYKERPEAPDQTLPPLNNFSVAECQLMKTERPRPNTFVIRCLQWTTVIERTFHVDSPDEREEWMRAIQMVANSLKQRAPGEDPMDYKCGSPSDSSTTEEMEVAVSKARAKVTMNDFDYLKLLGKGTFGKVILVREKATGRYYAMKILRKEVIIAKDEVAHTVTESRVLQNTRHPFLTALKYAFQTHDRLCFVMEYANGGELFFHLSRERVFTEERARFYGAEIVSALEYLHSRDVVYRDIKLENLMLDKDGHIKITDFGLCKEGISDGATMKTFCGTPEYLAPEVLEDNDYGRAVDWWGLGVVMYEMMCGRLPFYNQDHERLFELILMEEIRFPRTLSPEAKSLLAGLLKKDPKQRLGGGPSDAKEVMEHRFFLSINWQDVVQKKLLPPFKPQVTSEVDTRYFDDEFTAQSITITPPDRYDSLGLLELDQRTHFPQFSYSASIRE

B1: 6*His-hIRF3 (natural protein)
chain: MGTPKPRILPWLVSQLDLGQLEGVAWVNKSRTRFRIPWKHGLRQDAQQEDFGIFQAWAEATGAYVPGRDKPDLPTWKRNFRSALNRKEGLRLAEDRSKDPHDPHKIYEFVNSGVGDFSQPDTSPDTNGGGSTSDTQEDILDELLGNMVLAPLPDPGPPSLAVAPEPCPQPLRSPSLDNPTPFPNLGPSENPLKRLLVPGEEWEFEVTAFYRGRQVFQQTISCPEGLRLVGSEVGDRTLPGWPVTLPDPGMSLTDRGVMSYVRHVLSCLGGGLALWRAGQWLWAQRLGHCHTYWAVSEELLPNSGHGPDGEVPKDKEGGVFDLGPFIVDLITFTEGSGRSPRYALWFCVGESWPQDQPWTKRLVMVKVVPTCLRALVEMARVGGASSLENTVDLHISNSHPLSLTSDQYKAYLQDLVEGMDFQGPGES
B1: binds.
